Reference: US9089565B2, “Compositions and methods for causing neurite outgrowth” (MEDICAL RESEARCH COUNCIL, priority 2009, dated 2015)

Test system: NgR1
Test: Phosphorylation of endogenous NgR1 (upper band, immunoblotting) in RA-treated SH-SY5Y cells
Assay type: cell-based, human
Conditions: BDNF treatment 24 hours
Experimental: FIG. 1. BDNF promotes neurite outgrowth of RA-treated SH-SY5Y, and induces phosphorylation of NgR1. (A) SH-SY5Y cells were incubated with indicated reagents. Cell images were taken with phase contrast microscopy. (B) Number of cells extending neurite-like structures of more than 40 μm and total cell number were counted from images taken in (A). More than 300 cells were examined in each sample. The proportion of cells extending neurite-like structures of more than 40 μm was indicated as a percentage of total cell number. An average of three experiments is shown. Error bars indicate S. E. between experiments. Data were analysed with student's t test. (C) Whole cell extracts were prepared from RA-treated SH-SY5Y cells after incubation with or without BDNF for 24 hours, and were analysed by SDS-PAGE. Immunoblotting was performed with the indicated antibodies. (D) Whole cell extract prepared from cells treated with both RA and BDNF was incubated with the indicated reagents for 1 hour at 37° C. Immunoblotting was performed with anti-NgR1 antibody. (E) RA-treated SH-SY5Y cells were incubated with BDNF in the presence or absence of one of the following: PKC inhibitor—500 nM Gö6983 or Gö6976; PKA inhibitor—2 μM KT5720 or a PKA inhibitor peptide 14-22; or either 500 nM or 1 μM of a casein kinase inhibitor, for 24 hours. Whole cell extracts prepared from these cells were analysed by SDS-PAGE. Immunoblotting was performed with anti-NgR1 antibody.
SH-SY5Y cells were cultured in Ham's F12 medium with 10% foetal bovine serum at 37° C. in 5% CO2 and 95% air. Passage numbers between 15 and 21 were used in experiments described in this paper. Further passages induce spontaneous differentiation and cells tend to extend neurites without BDNF (data not shown). For RA treatment, the cells are seeded (20,000 cells/well) on collagen IV coated 4 well chamber slides. After 24 hours culture, medium was changed to Ham's F12 medium containing 10 μM RA and 10% foetal bovine serum. Medium was changed to fresh medium on day 3 and cells were used for experiments after 5 days culture. Encinas et al. (18) reported that RA-treated SH-SY5Y cells initiate apoptosis after withdrawal of serum only when the cells are cultured at low density. The cell density used in this paper was higher than that in the paper by Encinas et al. (18) and cell death due to depletion of serum or BDNF was not significant. In this paper, the SH-SY5Y cells treated with RA for 5 days are called RA-treated SH-SY5Y. For BDNF treatment, the RA-treated SH-SY5Y cells were washed with serum-free Ham's F12 medium and incubated with 25 ng/ml BDNF in serum-free Ham's F12 medium for 24 hours. As a control (RA alone), the RA-treated SH-SY5Y cells were incubated with serum-free Ham's F12 alone for 24 hours.
Cells were scraped off from dishes and washed with PBS twice, and then resuspended in PBS containing 0.1% Triton X100 and phosphatase inhibitor cocktail (Roche) and EDTA-free protease inhibitor cocktail (Roche). After incubation for 15 min on ice, samples were centrifuged at 14,000×g for 20 min at 4° C. The supernatants containing 30 μg of proteins were analysed by SDS-PAGE and blotted to PVDF membrane. The PVDF membrane was incubated in blocking buffer (5% skimmed milk, 0.4% Triton X-100 in PBS) for 1 hour, first antibody diluted in the blocking buffer and appropriate secondary antibody labelled with horse radish peroxidase. Bound antibodies were visualised with ECL or ECL Plus kit (GE healthcare).

B1: BDNF: brain-derived neurotrophic factor, member of the neurotrophin nerve growth factor family, purchased from Merck (protein, UniProt P23560 19-247, looked up)
Neurotrophic factor BDNF …: APMKEANIRGQGGLAYPGVRTHGTLESVNGPKAGSRGLTSLADTFEHVIEELLDEDQKVRPNEENNKDADLYTSRVMLSSQVPLEPPLLFLLEEYKNYLDAANMSMRVRRHSDPARRGELSVCDSISEWVTAADKKTAVDMSGGTVTVLEKVPVSKGQLKQYFYETKCNPMGYTKEGCRGIDKRHWNSQCRTTQSYVRALTMDSKKRIGWRFIRIDTSCVCTLTIKRGR
upper band of NgR1 (phosphorylated NgR1): increased
